Assay results as given in patent US20090311253A1 (AbbVie / Abbott, published 2009).
“And” between values parts separate entries of the source, which are not always exact repeats. Equal values may be shown once. Read-outs that look alike come from different tables or passages of the source.

T1: Recombinant Human TRANCE/RANKL/TNFSF 11 (human, UniProt O14788 69-317)
T1 construct: extracellular domain
T1 sequence (looked up): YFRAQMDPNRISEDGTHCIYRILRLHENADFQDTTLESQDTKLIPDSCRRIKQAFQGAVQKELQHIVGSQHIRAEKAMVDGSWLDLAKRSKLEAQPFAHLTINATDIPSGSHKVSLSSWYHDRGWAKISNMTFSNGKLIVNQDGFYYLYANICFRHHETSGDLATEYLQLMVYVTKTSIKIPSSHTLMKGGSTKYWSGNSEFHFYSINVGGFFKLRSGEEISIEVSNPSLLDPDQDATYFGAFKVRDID

T2: IL-1α (UniProt P01583 113-271)
T2 construct: also called IL-1alpha; IL-1a
T2 sequence (looked up): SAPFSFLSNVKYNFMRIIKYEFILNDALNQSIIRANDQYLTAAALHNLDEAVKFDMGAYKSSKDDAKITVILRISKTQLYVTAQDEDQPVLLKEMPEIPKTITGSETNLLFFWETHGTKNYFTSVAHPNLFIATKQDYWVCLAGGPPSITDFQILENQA


What was measured:
Recombinant Human IL-1β [1] = biological target: T3, Recombinant Human IL-1β (human, UniProt P01584 117-269); test: Biacore SPR
T3 construct: also called IL-1b; IL-1B
Experimental: (§1) The BIACORE assay (Biacore, Inc, Piscataway, N.J.) determines the affinity of antibodies or DVD-Ig with kinetic measurements of on-rate and off-rate constants. Binding of antibodies or DVD-Ig to a target antigen (for example, a purified recombinant target antigen) is determined by surface plasmon resonance-based measurements with a BiacoreR 1000 or 3000 instrument (Biacore® AB, Uppsala, Sweden) using running HBS-EP (10 mM HEPES [pH 7.4], 150 mM NaCl, 3 mM EDTA, and 0.005% surfactant P20) at 25° C. All chemicals are obtained from Biacore® AB (Uppsala, Sweden) or otherwise from a different source as described in the text. For example, approximately 5000 RU of goat anti-mouse IgG, (Fcγ), fragment specific polyclonal antibody (Pierce Biotechnology Inc, Rockford, Ill.) diluted in 10 mM sodium acetate (pH 4.5) is directly immobilized across a CM5 research grade biosensor chip using a standard amine coupling kit according to manufacturer's instructions and procedures at 25 μg/ml. Unreacted moieties on the biosensor surface are blocked with ethanolamine. Modified carboxymethyl dextran surface in flowcell 2 and 4 is used as a reaction surface. Unmodified carboxymethyl dextran without goat anti-mouse IgG in flow cell 1 and 3 is used as the reference surface. For kinetic analysis, rate equations derived from the 1:1 Langmuir binding model are fitted simultaneously to association and dissociation phases of all eight injections (using global fit analysis) with the use of Biaevaluation 4.0.1 software. Purified antibodies or DVD-Ig are diluted in HEPES-buffered saline for capture across goat anti-mouse IgG specific reaction surfaces. Antibodies or DVD-Ig to be captured as a ligand (25 μg/ml) are injected over reaction matrices at a flow rate of 5 μl/min. The association and dissociation rate constants, kₒₙ (M⁻¹s⁻¹) and koff (s⁻¹) are determined under a continuous flow rate of 25 μl/min. Rate constants are derived by making kinetic binding measurements at different antigen concentrations ranging from […]. The equilibrium dissociation constant (M) of the reaction between antibodies or DVD-Igs and the target antigen is then calculated from the kinetic rate constants by the following formula: KD=koff/kₒₙ. Binding is recorded as a function of time and kinetic rate constants are calculated.

[2] = biological target: T1, Recombinant Human TRANCE/RANKL/TNFSF 11; test: Biacore SPR
Experimental: as §1

Recombinant Human IL-1β [3] = biological target: T3, Recombinant Human IL-1β; test: cell-based or functional assay
Recombinant Human IL-1β [4] = biological target: T3, Recombinant Human IL-1β; test: direct bind ELISA
Experimental: (§2) Enzyme Linked Immunosorbent Assays to screen for antibodies that bind a desired target antigen were performed as follows. High bind ELISA plates (Corning Costar # 3369, Acton, Mass.) were coated with 100 μL/well of 10 μg/ml of desired target antigen (R&D Systems, Minneapolis, Minn.) or desired target antigen extra-cellular domain/FC fusion protein (R&D Systems, Minneapolis, Minn.) or monoclonal mouse anti-polyhistidine antibody (R&D Systems # MAB050, Minneapolis, Minn.) in phosphate buffered saline (10×PBS, Abbott Bioresearch Center, Media Prep# MPS-073, Worcester, Mass.) overnight at 4° C. Plates were washed four times with PBS containing 0.02% Tween 20. Plates were blocked by the addition of 300 μL/well blocking solution (non-fat dry milk powder, various retail suppliers, diluted to 2% in PBS) for ½ hour at room temperature. Plates were washed four times after blocking with PBS containing 0.02% Tween 20.
(§3) Plates were washed 4 times with PBS containing 0.02% Tween 20.
(§4) One hundred microliters of enhanced TMB solution (Neogen Corp. #308177, K Blue, Lexington, Ky.) was added to each well and incubated for 10 minutes at room temperature. The reaction was stopped by the addition of 50 μL 1N sulphuric acid. Plates were read spectrophotometrically at a wavelength of 450 nm.

[5] = biological target: T1, Recombinant Human TRANCE/RANKL/TNFSF 11; test: direct bind ELISA
Experimental: as §2, §3, §4

Recombinant Human IL-1β [6] = biological target: T3, Recombinant Human IL-1β; test: direct bind ELISA; remark: listed apart in the source
IL-1α = biological target: T2, IL-1α; test: direct bind ELISA

Row | Binder | EC50 (Recombinant Human IL-1β [6]) [nM] | EC50 (IL-1α) [nM] | other results
1 | DVD125 (bispecific antibody, human IgG1, kappa, outer AB032, inner AB018; vectors V1, V2) heavy: not shown light: EIVLTQSPDFQSVTPKEKVTITCRASQSIGSSLHWYQQKPDQSPKLLIKYASQSFSGVPSRFSGSGSGTDFTLTINSLEAEDAAAYYCHQSSSLPFTFGPGTKVDIKRTVAAPEIVLTQSPGTLSLSPGERATLSCRASQSVRGRYLAWYQQKPGQAPRLLIYGASSRATGIPDRFSGSGSGTDFTLTISRLEPEDFAVFYCQQYGSSPRTFGQGTKVEIKRTVAAPSVFIFPPSDEQLKSGTASVVCLLNNFYPREAKVQWKVDNALQSGNSQESVTEQDSKDSTYSLSSTLTLSKADYEKHKVYACEVTHQGLSSPVTKSFNRGEC | – | – | Kd (Recombinant Human IL-1β [1]): 0.0829 nM; koff (Recombinant Human IL-1β [1]): 0.000107 s⁻¹; kon (Recombinant Human IL-1β [1]): 1.29e+06 M⁻¹ s⁻¹; Kd [2]: 3.5 nM; koff [2]: 7.45e-05 s⁻¹; kon [2]: 21200 M⁻¹ s⁻¹; IL-1β Neutralization Assay EC50 (MRC5 cells, hIL-8) (Recombinant Human IL-1β [3]): 0.043 nM; EC50 (Recombinant Human IL-1β [4]): 4.36 nM; EC50 [5]: 2.89 nM
2 | DVD374 (bispecific antibody, human IgG1, kappa, vectors V1, V2) heavy: not shown light: EIVLTQSPDFQSVTPKEKVTITCRASQSIGSSLHWYQQKPDQSPKLLIKYASQSFSGVPSRFSGSGSGTDFTLTINSLEAEDAAAYYCHQSSSLPFTFGPGTKVDIKRTVAAPSVFIFPPDIQMTQSPSSVSASVGDRVTITCRASQGISSWLAWYQQKPGKAPKLLIYEASNLETGVPSRFSGSGSGSDFTLTISSLQPEDFATYYCQQTSSFLLSFGGGTKVEHKRTVAAPSVFIFPPSDEQLKSGTASVVCLLNNFYPREAKVQWKVDNALQSGNSQESVTEQDSKDSTYSLSSTLTLSKADYEKHKVYACEVTHQGLSSPVTKSFNRGEC | 6.47 | 8.78 | –
3 | DVD377 (bispecific antibody, human IgG1, kappa, vectors V1, V2) heavy: not shown light: DIQMTQSPSSVSASVGDRVTITCRASQGISSWLAWYQQKPGKAPKLLIYEASNLETGVPSRFSGSGSGSDFTLTISSLQPEDFATYYCQQTSSFLLSFGGGTKVEHKRTVAAPEIVLTQSPDFQSVTPKEKVTITCRASQSIGSSLHWYQQKPDQSPKLLIKYASQSFSGVPSRFSGSGSGTDFTLTINSLEAEDAAAYYCHQSSSLPFTFGPGTKVDIKRTVAAPSVFIFPPSDEQLKSGTASVVCLLNNFYPREAKVQWKVDNALQSGNSQESVTEQDSKDSTYSLSSTLTLSKADYEKHKVYACEVTHQGLSSPVTKSFNRGEC | 165 | 143 | –
4 | DVD378 (bispecific antibody, human IgG1, kappa, vectors V1, V2) heavy: not shown light: EIVLTQSPDFQSVTPKEKVTITCRASQSIGSSLHWYQQKPDQSPKLLIKYASQSFSGVPSRFSGSGSGTDFTLTINSLEAEDAAAYYCHQSSSLPFTFGPGTKVDIKRTVAAPDIQMTQSPSSVSASVGDRVTITCRASQGISSWLAWYQQKPGKAPKLLIYEASNLETGVPSRFSGSGSGSDFTLTISSLQPEDFATYYCQQTSSFLLSFGGGTKVEHKRTVAAPSVFIFPPSDEQLKSGTASVVCLLNNFYPREAKVQWKVDNALQSGNSQESVTEQDSKDSTYSLSSTLTLSKADYEKHKVYACEVTHQGLSSPVTKSFNRGEC | 1.89 | 2.86 | –
5 | AB032 (antibody, human IgG1, kappa, V domains shown, vectors V1 and V2) VH: QVQLVESGGGVVQPGRSLRLSCAASGFTFSVYGMNWVRQAPGKGLEWVAIIWYDGDNQYYADSVKGRFTISRDNSKNTLYLQMNGLRAEDTAVYYCARDLRTGPFDYWGQGTLVTVSS VL: EIVLTQSPDFQSVTPKEKVTITCRASQSIGSSLHWYQQKPDQSPKLLIKYASQSFSGVPSRFSGSGSGTDFTLTINSLEAEDAAAYYCHQSSSLPFTFGPGTKVDIKR | 0.91 | – | Kd (Recombinant Human IL-1β [1]): 0.0131 nM; EC50 (Recombinant Human IL-1β [4]): 2.61 nM and 5.27 nM
6 | DVD379 (bispecific antibody, human IgG1, kappa, vectors V1, V2) heavy: not shown light: DIQMTQSPSSVSASVGDRVTITCRASQGISSWLAWYQQKPGKAPKLLIYEASNLETGVPSRFSGSGSGSDFTLTISSLQPEDFATYYCQQTSSFLLSFGGGTKVEHKRTVAAPDIQMTQSPSSLSASVGDRVTITCRASGNIHNYLTWYQQTPGKAPKLLIYNAKTLADGVPSRFSGSGSGTDYTFTISSLQPEDIATYYCQHFWSIPYTFGQGTKLQITTVAAPSVFIFPPSDEQLKSGTASVVCLLNNFYPREAKVQWKVDNALQSGNSQESVTEQDSKDSTYSLSSTLTLSKADYEKHKVYACEVTHQGLSSPVTKSFNRGEC | 150 | – | –
7 | DVD166 (bispecific antibody, human IgG1, kappa, vectors V1, V2; also called RANKL and CD-20 DVD-Ig) heavy: not shown light: EIVLTQSPGTLSLSPGERATLSCRASQSVRGRYLAWYQQKPGQAPRLLIYGASSRATGIPDRFSGSGSGTDFTLTISRLEPEDFAVFYCQQYGSSPRTFGQGTKVEIKRTVAAPQIVLSQSPAILSPSPGEKVTMTCRASSSVSYIHWFQQKPGSSPKPWIYATSNLASGVPVRFSGSGSGTSYSLTISRVEAEDAATYYCQQWTSNPPTFGGGTKLEIKRTVAAPSVFIFPPSDEQLKSGTASVVCLLNNFYPREAKVQWKVDNALQSGNSQESVTEQDSKDSTYSLSSTLTLSKADYEKHKVYACEVTHQGLSSPVTKSFNRGEC | – | – | EC50 [5]: 0.12 nM

Further lines, with some results ahead:

Row | EC50 (Recombinant Human IL-1β [6]) [nM] | EC50 (IL-1α) [nM] | Binder | other results
8 | 500 | 965 | DVD381 (bispecific antibody, human IgG1, kappa, vectors V1, V2) heavy: not shown light: DIQMTQSPSSVSASVGDRVTITCRASQGISSWLAWYQQKPGKAPKLLIYEASNLETGVPSRFSGSGSGSDFTLTISSLQPEDFATYYCQQTSSFLLSFGGGTKVEHKRTVAAPSVFIFPPEIVLTQSPDFQSVTPKEKVTITCRASQSIGSSLHWYQQKPDQSPKLLIKYASQSFSGVPSRFSGSGSGTDFTLTINSLEAEDAAAYYCHQSSSLPFTFGPGTKVDIKRTVAAPSVFIFPPSDEQLKSGTASVVCLLNNFYPREAKVQWKVDNALQSGNSQESVTEQDSKDSTYSLSSTLTLSKADYEKHKVYACEVTHQGLSSPVTKSFNRGEC | –
9 | 6.52 | 4.61 | DVD382 (bispecific antibody, human IgG1, kappa, vectors V1, V2) heavy: not shown light: EIVLTQSPDFQSVTPKEKVTITCRASQSIGSSLHWYQQKPDQSPKLLIKYASQSFSGVPSRFSGSGSGTDFTLTINSLEAEDAAAYYCHQSSSLPFTFGPGTKVDIKRTVAAPSVFIFPPDIQMTQSPSSVSASVGDRVTITCRASQGISSWLAWYQQKPGKAPKLLIYEASNLETGVPSRFSGSGSGSDFTLTISSLQPEDFATYYCQQTSSFLLSFGGGTKVEHKRTVAAPSVFIFPPSDEQLKSGTASVVCLLNNFYPREAKVQWKVDNALQSGNSQESVTEQDSKDSTYSLSSTLTLSKADYEKHKVYACEVTHQGLSSPVTKSFNRGEC | –
10 | 2620 | – | DVD383 (bispecific antibody, human IgG1, kappa, vectors V1, V2) heavy: not shown light: DIQMTQSPSSVSASVGDRVTITCRASQGISSWLAWYQQKPGKAPKLLIYEASNLETGVPSRFSGSGSGSDFTLTISSLQPEDFATYYCQQTSSFLLSFGGGTKVEHKRTVAAPSVFIFPPDIQMTQSPSSLSASVGDRVTITCRASGNIHNYLTWYQQTPGKAPKLLIYNAKTLADGVPSRFSGSGSGTDYTFTISSLQPEDIATYYCQHFWSIPYTFGQGTKLQITTVAAPSVFIFPPSDEQLKSGTASVVCLLNNFYPREAKVQWKVDNALQSGNSQESVTEQDSKDSTYSLSSTLTLSKADYEKHKVYACEVTHQGLSSPVTKSFNRGEC | –
